Experimental data as given in doi:10.1101/2021.02.17.431740.

Tests used:
[1] = molecular target: HA-tagged PEAK3 Y24 mutant (SH2 binding motif mutant; DKO MCF-10A cells) (UniProt Q6ZS72); experiment: co-IP
[2] = molecular target: HA-tagged PEAK3 SH3(1) mutant (DKO MCF-10A cells) (UniProt Q6ZS72); experiment: co-IP

Chain of PYK2 (MCF-10A cells) (Q14289 whole entry): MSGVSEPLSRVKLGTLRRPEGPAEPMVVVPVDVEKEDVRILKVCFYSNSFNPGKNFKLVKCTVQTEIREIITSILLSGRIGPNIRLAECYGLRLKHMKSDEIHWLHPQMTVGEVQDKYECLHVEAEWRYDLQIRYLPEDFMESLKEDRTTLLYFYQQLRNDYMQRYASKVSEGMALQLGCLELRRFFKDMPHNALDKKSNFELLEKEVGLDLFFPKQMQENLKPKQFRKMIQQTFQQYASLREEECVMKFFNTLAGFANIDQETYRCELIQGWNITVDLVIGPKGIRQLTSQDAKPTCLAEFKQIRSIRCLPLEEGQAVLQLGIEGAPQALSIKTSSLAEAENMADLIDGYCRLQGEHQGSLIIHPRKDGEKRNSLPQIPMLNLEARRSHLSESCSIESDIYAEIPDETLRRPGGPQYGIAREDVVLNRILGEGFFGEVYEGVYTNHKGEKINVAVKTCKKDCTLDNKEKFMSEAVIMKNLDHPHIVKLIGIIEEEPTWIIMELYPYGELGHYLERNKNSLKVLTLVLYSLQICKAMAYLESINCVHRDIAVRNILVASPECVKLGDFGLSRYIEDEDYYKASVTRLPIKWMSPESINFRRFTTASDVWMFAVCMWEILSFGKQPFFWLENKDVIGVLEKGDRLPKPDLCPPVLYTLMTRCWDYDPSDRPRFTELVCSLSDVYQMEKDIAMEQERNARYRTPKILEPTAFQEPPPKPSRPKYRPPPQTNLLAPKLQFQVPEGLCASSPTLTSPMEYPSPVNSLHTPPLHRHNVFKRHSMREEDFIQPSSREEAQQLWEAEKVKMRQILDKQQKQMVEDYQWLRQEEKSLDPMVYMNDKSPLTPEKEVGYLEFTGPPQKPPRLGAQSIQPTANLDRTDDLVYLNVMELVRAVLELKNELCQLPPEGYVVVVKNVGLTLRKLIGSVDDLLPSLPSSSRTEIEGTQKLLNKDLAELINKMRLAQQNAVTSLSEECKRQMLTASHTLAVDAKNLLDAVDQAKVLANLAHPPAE
Chain of CrkII (MCF-10A cells) (P46108 whole entry): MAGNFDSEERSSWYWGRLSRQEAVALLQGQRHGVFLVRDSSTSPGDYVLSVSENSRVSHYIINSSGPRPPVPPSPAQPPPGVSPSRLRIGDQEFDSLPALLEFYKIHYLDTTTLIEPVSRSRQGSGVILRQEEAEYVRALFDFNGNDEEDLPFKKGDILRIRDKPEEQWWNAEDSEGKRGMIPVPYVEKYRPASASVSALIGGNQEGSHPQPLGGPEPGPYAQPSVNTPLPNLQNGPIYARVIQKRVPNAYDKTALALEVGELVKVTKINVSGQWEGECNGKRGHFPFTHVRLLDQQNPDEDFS

Substance | association relative to WT PEAK3 (control) [1] | recruitment relative to WT PEAK3 [2] [%]
CrkII (MCF-10A cells) (from UniProt P46108-1 1-304) (natural protein) | 40 % of control | –
PYK2 (MCF-10A cells) (from UniProt Q14289 1-1009) (natural protein) | – | 50
